Data reported in article PMC10959958.

Molecular target: 4-HNE-modified recombinant C99 with mutation Lys53Arg (human)
Experiment: SDS-PAGE with Western blot; recombinant C99 or C99^Lys53Arg reacted with 50-fold (R)-4-HNE (25 mM HEPES, 150 mM NaCl, pH 7.4, 37 °C, 1 h); C99 detected by C1/6.1 antibody, adducts by 4-HNE antibody; oligomer bands on the gel

stoichiometry N: 2
Substance: 4-HNE-modified recombinant C99 with mutation Lys53Arg (domain or fragment)
